{"source": "paper PMC3097263", "biological_target": "T1, MqsA N97A/R101A N97A;R101A (Escherichia coli K-12?) (UniProt Q46864)", "T1 sequence": "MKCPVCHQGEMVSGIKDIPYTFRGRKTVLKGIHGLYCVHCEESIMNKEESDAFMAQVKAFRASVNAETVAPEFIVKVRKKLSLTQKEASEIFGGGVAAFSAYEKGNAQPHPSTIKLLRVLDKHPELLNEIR", "assay": "EMSA", "settings": "20 min at room temperature, binding buffer", "data": [{"sequence": "TGAACGTTGGTCAGACCTTGCAGGTGGGTAATGCTTCCGGTACGCCAATCACTGGCGGAAATGCCATTACCCAGGCCGACGCAGCAGAGCAAGGAGTTGTGATCAAGCCTGCACAAAATTCCACCGTTGCTGTTGCGTCGCAACCGACAATTACGTATTCTGAGTCTTCGGGTGAACAGAGTGCT (double strand) [PrpoS (Suppl. Fig. 3b probe)]", "values": [{"measurement": "binding", "value": "no binding"}]}]}
